These results are taken from US20210380960.

Data set [1] addresses T1, Peptide 5: enriched with aromatic residues.
T1 chain: YFLMNENRYTSWNSE

Data set [2] has as its target T2, Peptide 7 (random peptide).
T2 chain: GISEQFKTNVLREYA

For data set [3], the target named is T3, Peptide 1: enriched in negatively charged residues.
T3 chain: EEDEKRRKYTSWNSE

Data set [4] addresses T4, Peptide 2: enriched in hydrophobic residues.
T4 chain: LMLLNENRYTSWNSE

Data set [5] addresses T5, Peptide 4: enriched in glycines.
T5 chain: GGGGNENRYTSWNSE

B1: MjTET (protein)
chain: MSVVEYLKKLSKLHGISGREDSVREFMKKELEKYCDSVEIDNFGNLIAKRGNKGKKIMIAAHMDEIGLMVKYIDDNGFLKFTKIGGIYDPTILNQKVVVHGSKGDLIGVLGSKPPHRMKEEEKTKIIKYEDMFIDIGAESREEAIEMGVNIGTWVSFLSEVYDLGKNRLTGKAFDDRVGCAVLLEVMKRLSEEDIDCQVYAVGTVQEEVGLKGARVSAFKINPDVAIALDVTIAGDHPGIKKEDAPVDLGKGPVVGIVDASGRGLIAHPKVLDMIKAVSEKYKIDVQWEVGEGGTTDATAIHLTREGIPTGVISVPARYIHTPVEVIDKRDLEKTVELVYNCIKEVNNFF
For the protein B1, in data set [1], the “hydrolysis of the peptide, RP-HPLC after 15 min at 40° C.” value was “all the intermediate peptides are visible as well as the final product pep-4, and there is only a significant slowdown in hydrolysis”; the “hydrolysis of the peptide, RP-HPLC after 15 min at 60° C.” value is listed as “part of the intact peptide is still present in the reaction medium, while the residues of the hydrolysis products are present in almost equivalent amounts. There is a slight accumulation of the final hydrolysis product, the peptide pep-4”. Besides, in data set [2], the “hydrolysis of peptide 7 incorporated into a casein hydrolyzate, RP-HPLC” value is on record as “the peptide of interest is not very hydrolyzed”; the “kinetics of hydrolysis of the peptide, RP-HPLC after 5, 15 and 30 min” value was “we observe, in addition to the peptide pep-1, the peptides pep-2 and pep-3, and what corresponds to pep-4 ... between 15 and 30 min, the concentration of the substrate peptide pep-0 does not seem to have decreased”.

B2: PhTET1 (protein)
chain: MMSMIEKLKKFTQIPGISGYEERIREEIIREIKDFADYKVDAIGNLIVELGEGEERILFMAHMDEIGLLITGITDEGKLRFRKVGGIDDRLLYGRHVNVVTEKGILDGVIGATPPHLSLERDKSVIPWYDLVIDIGAESKEEALELVKPLDFAVFKKHFSVLNGKYVSTRGLDDRFGVVALIEAIKDLVDHELEGKVIFAFTVQEEVGLKGAKFLANHYYPQYAFAIDSFACCSPLTGDVKLGKGPVIRAVDNSAIYSRDLARKVWSIAEKNGIEIQIGVTGGGTDASAFQDRSKTLALSVPIKYLHSEVETLHLNDLEKLVKLIEALAFEL
Consider B2, for which the “hydrolysis of the peptide, RP-HPLC after 15 min” value in data set [3] is “no hydrolysis activity is observed”.

B3: PhTET2 (protein)
chain: MEVRNMVDYELLKKVVEAPGVSGYEFLGIRDVVIEEIKDYVDEVKVDKLGNVIAHKKGEGPKVMIAAHMDQIGLMVTHIEKNGFLRVAPIGGVDPKTLIAQRFKVWIDKGKFIYGVGASVPPHIQKPEDRKKAPDWDQIFIDIGAESKEEAEDMGVKIGTVITWDGRLERLGKHRFVSIAFDDRIAVYTILEVAKQLKDAKADVYFVATVQEEVGLRGARTSAFGIEPDYGFAIDVTIAADIPGTPEHKQVTHLGKGTAIKIMDRSVICHPTIVRWLEELAKKHEIPYQLEILLGGGTDAGAIHLTKAGVPTGALSVPARYIHSNTEVVDERDVDATVELMTKALENIHELKI
With B3, the “hydrolysis of the peptide, RP-HPLC after 15 min” value in data set [4] is “the first residues of the peptide were hydrolyzed more quickly in the presence of PhTET3 than in the presence of PhTET2”.

B4: PhTET4 (protein)
chain: MERIVKILREILEIPSPTGYTKEVMSYLEKFLKENEVNFYYTNKGALIAGNHPKPELVVIAHVDTLGAMVKEILPDGHLAFSRIGGLVLPTFEGEYCTIITRKGKKFRGTLLLRNPSAHVNREVGKKERKEENMYIRLDELVEKREDTEKLGIRPGDFIAFDPKFEYVNGFVKSHFLDDKASVAAILDLIIDMKDELEKYPVAFFFSPYEEVGHGGSAGYPPTTKELLVVDMGVVGEGVSGKETAVSIAAKDTTGPYDYDMTNRLIELAEENNIPYVVDVFPYYGSDGSAALRAGWDFRVALIGPGVHASHGMERTHVKGLLATKELIRAYIKWKG
Consider B4, for which the “hydrolysis of the peptide, RP-HPLC after 15 min” value in data set [5] is “no hydrolysis activity is observed”. Further, in data set [2], the “hydrolysis of peptide 7 incorporated into a casein hydrolyzate, RP-HPLC” value was “only the peptide of interest is hydrolysed by the aminopeptidase PhTET4 and, this, almost completely”; the “kinetics of hydrolysis of the peptide, RP-HPLC after 5, 15 and 30 min” value is given as “only the hydrolysis of the first glycine residue was observed”.

B5: PhTET3 (protein)
chain: MDLKGGESMVDWKLMQEIIEAPGVSGYEHLGIRDIVVDVLKEVADEVKVDKLGNVIAHFKGSSPRIMVAAHMDKIGVMVNHIDKDGYLHIVPIGGVLPETLVAQRIRFFTEKGERYGVVGVLPPHLRRGQEDKGSKIDWDQIVVDVGASSKEEAEEMGFRVGTVGEFAPNFTRLNEHRFATPYLDDRICLYAMIEAARQLGDHEADIYIVGSVQEEVGLRGARVASYAINPEVGIAMDVTFAKQPHDKGKIVPELGKGPVMDVGPNINPKLRAFADEVAKKYEIPLQVEPSPRPTGTDANVMQINKEGVATAVLSIPIRYMHSQVELADARDVDNTIKLAKALLEELKPMDFTP
In the case of B5, in data set [1], the “hydrolysis of the peptide, RP-HPLC after 15 min (PhTET3 alone, 5% experiment)” value is “there is a strong accumulation of the peptide pep-1 after the 15 minutes of incubation of the aminopeptidase with the substrate peptide”; the “hydrolysis of the peptide, RP-HPLC after 15 min at 40° C.” value is “a significant decrease in hydrolysis is observed. In fact, in this case, only the peptide pep-1 is visible and in very small quantity”; the “hydrolysis of the peptide, RP-HPLC after 15 min at 60° C.” value is recorded as “there is an accumulation of the peptide pep-1 while the intact substrate peptide is no longer present in the medium”; the “hydrolysis of the peptide, RP-HPLC and mass spectrometry” value was “significant accumulation of peptides whose tyrosine at the N-terminal end has been hydrolyzed”. For the same protein, in data set [2], the “hydrolysis of peptide 7 incorporated into a casein hydrolyzate, RP-HPLC” value was “the peptide of interest is not very hydrolyzed”.
